Test results from patent US20110206694A1 (UNIVERSITY OF TENNESSEE RESEARCH FOUNDATION, published 2011).

Molecular target: labeled control protein (BSA) (UniProt P02769 25-607)
Assay: membrane-immobilized flagellin bait, biotinylated prey, streptavidin-HRP

Chain of labeled control protein (BSA) (P02769 25-607 limits assumed): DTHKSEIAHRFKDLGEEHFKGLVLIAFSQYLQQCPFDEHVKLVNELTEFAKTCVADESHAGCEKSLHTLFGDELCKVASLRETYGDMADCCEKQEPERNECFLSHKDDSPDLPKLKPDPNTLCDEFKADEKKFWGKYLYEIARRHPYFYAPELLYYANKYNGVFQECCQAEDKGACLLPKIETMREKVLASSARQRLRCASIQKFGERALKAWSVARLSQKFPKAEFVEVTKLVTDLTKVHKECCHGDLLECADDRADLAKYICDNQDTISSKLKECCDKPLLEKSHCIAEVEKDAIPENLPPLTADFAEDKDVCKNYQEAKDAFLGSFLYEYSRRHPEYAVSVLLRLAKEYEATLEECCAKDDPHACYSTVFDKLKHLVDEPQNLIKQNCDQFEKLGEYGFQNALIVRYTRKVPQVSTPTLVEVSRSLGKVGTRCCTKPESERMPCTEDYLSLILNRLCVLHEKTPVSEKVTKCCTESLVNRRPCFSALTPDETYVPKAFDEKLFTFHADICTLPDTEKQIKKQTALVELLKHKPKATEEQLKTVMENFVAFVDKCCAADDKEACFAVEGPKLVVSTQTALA

B1: flagellin FliC, serotype H48, of E. coli K-12 (MG1655) (other)
chain: AQVINTNSLSLITQNNINKNQSALSSSIERLSSGLRINSAKDDAAGQAIANRFTSNIKGLTQAARNANDGISVAQTTEGALSEINNNLQRVRELTVQATTGTNSESDLSSIQDEIKSRLDEIDRVSGQTQFNGVNVLAKNGSMKIQVGANDNQTITIDLKQIDAKTLGLDGFSVKNNDTVTTSAPVTAFGATTTNNIKLTGITLSTEAATDTGGTNPASIEGVYTDNGNDYYAKITGGDNDGKYYAVTVANDGTVTMATGATANATVTDANTTKATTITSGGTPVQIDNTAGSATANLGAVSLVKLQDSKGNDTDTYALKDTNGNLYAADVNETTGAVSVKTITYTDSSGAASSPTAVKLGGDDGKTEVVDIDGKTYDSADLNGGNLQTGLTAGGEALTAVANGKTTDPLKALDDAIASVDKFRSSLGAVQNRLDSAVTNLNNTTTNLSEAQSRIQDADYATEVSNMSKAQIIQQAGNSVLAKANQVPQQVLSLLQG
notes: also called FliCH48; FliC (H48)
B1: no binding (tested: 10 µg/ml).
